± gives the uncertainty stated by the source.
Assay: protein stability index of a GFP-peptide fusion (yeast GPS) (PSI 1-4); higher = more stable; sorted into four equal gates, so the index is relative within each strain
How it was run: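 Sequencing reads from sorted gates were used to score each peptide. The library consisted of tiled 17-residue yeast protein peptides fused downstream of GFP on a Cherry-expressing plasmid, pooled and carried in yeast. Mid-log cultures in leucine-free medium were split into four equal gates by GFP/Cherry ratio, and each gate's plasmids were PCR-amplified and Illumina-sequenced. The protein stability index adds up, over all gates, the read frequency multiplied by the gate number.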

Row | Sequence | protein stability index (doa10∆) | protein stability index (pdr5∆) | protein stability index (san1∆) | protein stability index (ubr1∆)
1 | NASLTIEDEDEPFNAGI [SMC1] | 3.29 ± 0.13 | 3.15 ± 0.12 | 3.39 ± 0.083 | 3.23 ± 0.085
2 | HFQDQKNKKIEVYTKTI [POP7] | 3.19 ± 0.11 | 2.83 ± 0.12 | 3.23 ± 0.084 | 2.7 ± 0.086
3 | LRSTENGIVDQVLVTTN [RPB2] | 2.39 ± 0.095 | 2.03 ± 0.11 | 2.46 ± 0.099 | 1.82 ± 0.055
4 | MSGSFWTSTQRHHWQYT [SSN8] | 2.07 ± 0.14 | 2.27 ± 0.15 | 1.97 ± 0.13 | 2.23 ± 0.099
5 | RIGKHRKHPGGRGMAGG [RPL28] | 2.92 ± 0.12 | 2.63 ± 0.24 | 2.97 ± 0.1 | 3.22 ± 0.16
6 | LKNMLYVLSTAVEFESV [BRR2] | 1.77 ± 0.038 | 1.58 ± 0.037 | 1.88 ± 0.081 | 1.42 ± 0.032
7 | EPDREKIKLLTQATSED [RPC19] | 2.95 ± 0.2 | 3.19 ± 0.11 | 2.73 ± 0.12 | 3.28 ± 0.11
8 | TLASLIRYNSVEIQEVP [RPC82] | 2.62 ± 0.073 | 2.59 ± 0.051 | 2.48 ± 0.12 | 2.54 ± 0.077
9 | KNLKDTASVEKAEFSKE [YIL149C/MLP2] | 3.07 ± 0.083 | 3.19 ± 0.091 | 3.09 ± 0.1 | 3.24 ± 0.081
10 | NHVKQFYERLDKSTTQL [MED11] | 2.47 ± 0.061 | 2.64 ± 0.081 | 2.5 ± 0.052 | 2.62 ± 0.083
11 | NNNGLPQNGNINNNINI [GAL11] | 3.13 ± 0.05 | 3.29 ± 0.071 | 3.39 ± 0.044 | 3.11 ± 0.048
12 | GPRNTEEKGWVPVTKLG [RPS2] | 3.55 ± 0.1 | 3.46 ± 0.1 | 3.61 ± 0.05 | 3.67 ± 0.082
13 | CLFENDLQRLKPLGLDR [ITC1] | 2.92 ± 0.074 | 3.19 ± 0.11 | 3.15 ± 0.065 | 3.09 ± 0.042
14 | DDVRRAAVIALGFVLLR [RPN2] | 1.86 ± 0.14 | 2.09 ± 0.075 | 1.99 ± 0.13 | 1.8 ± 0.082
15 | DANRNANNIVNIVSDAG [GRR1] | 3.07 ± 0.068 | 3.06 ± 0.059 | 2.99 ± 0.041 | 2.97 ± 0.067
16 | LAIKDSKKRFAAIWTLC [RPO21] | 1.9 ± 0.045 | 1.92 ± 0.045 | 1.8 ± 0.072 | 2.1 ± 0.036
17 | GWSLVGRILQNLLHSYM [YML103C/NUP188] | 1.85 ± 0.087 | 1.18 ± 0.06 | 1.18 ± 0.092 | 1.05 ± 0.03
18 | TNILISPLNTTTKILGD [YML103C/NUP188] | 2.15 ± 0.058 | 2.42 ± 0.05 | 2.04 ± 0.086 | 1.51 ± 0.033
19 | FDQAGKKVSRRNARATR [RPL13A] | 2.51 ± 0.073 | 3.36 ± 0.057 | 1.92 ± 0.12 | 2.34 ± 0.067
20 | KHYLEDKLKVYKQAMNE [SNF5] | 3.19 ± 0.093 | 3.18 ± 0.12 | 3.1 ± 0.1 | 3.08 ± 0.067
21 | EELINAAKGSSTSYAIK [RPS5] | 2.66 ± 0.077 | 1.88 ± 0.051 | 1.43 ± 0.068 | 1.76 ± 0.044
22 | QRQLLVQQQQQQQLRNQ [SNF5] | 2.2 ± 0.071 | 2.54 ± 0.11 | 2.44 ± 0.19 | 2.6 ± 0.1
23 | VQLSPSNPQHIIQPFLD [RGR1] | 2.73 ± 0.051 | 2.85 ± 0.062 | 2.51 ± 0.063 | 2.82 ± 0.032
24 | WVNNPKKRFTPHTVIRR [YDL088C/ASM4] | 3.42 ± 0.23 | – | – | –
25 | TSPSYSPTSPSYSPTSP [RPO21] | 2.64 ± 0.045 | 3 ± 0.038 | 2.77 ± 0.033 | 2.81 ± 0.03
26 | FYVQDVYKDNLSFIQVR [RPO31] | 1.98 ± 0.049 | 1.69 ± 0.05 | 1.92 ± 0.068 | 1.88 ± 0.041

Row | Sequence | protein stability index (doa10∆) | protein stability index (pdr5∆) | protein stability index (san1∆) | protein stability index (ubr1∆)
27 | VNWLAYTYLYVRMLASP [BRR2] | 1.11 ± 0.14 | 1.14 ± 0.18 | 1.31 ± 0.19 | 1.24 ± 0.1
28 | YQSSVQEPFLNSSNYAE [PRP8] | 2.99 ± 0.055 | 2.96 ± 0.052 | 2.78 ± 0.053 | 2.9 ± 0.043
29 | TKFKGGKRQLMKAVGEY [SEC65] | 2.88 ± 0.098 | 3.11 ± 0.11 | 3.26 ± 0.056 | 2.46 ± 0.088
30 | SGGGDSEVQRTMLELLN [RPT6] | 3.22 ± 0.18 | 2.42 ± 0.19 | – | 3.42 ± 0.066
31 | SLLKTKLKQQSSTDIPS [RRI1] | 2.15 ± 0.05 | 2.4 ± 0.054 | 2.21 ± 0.082 | 2.44 ± 0.062
32 | KSLGLKLPLSVINVSAQ [RPS17A] | 1.35 ± 0.052 | 1.36 ± 0.048 | 1.41 ± 0.13 | 1.37 ± 0.073
33 | NKQPRNESFNRRISSMP [YAR002W/NUP60] | 2.62 ± 0.068 | 3.04 ± 0.07 | 2.53 ± 0.078 | 2.99 ± 0.038
34 | AEEEEESDDDMGFGLFD [RPP0] | 3.36 ± 0.09 | 2.96 ± 0.12 | 3.24 ± 0.046 | 3.25 ± 0.065
35 | AEQEKAKNIISNVLDGN [LRP1] | 2.45 ± 0.051 | 2.7 ± 0.059 | 2.63 ± 0.056 | 2.98 ± 0.05
36 | VVFAVEKLITSKLLVPQ [PRE10] | 2.03 ± 0.14 | 2.81 ± 0.18 | 2.33 ± 0.13 | 2.66 ± 0.05
37 | RNNFLAENSHTQPKATS [PUP1] | 3.14 ± 0.069 | 3.1 ± 0.059 | 3.06 ± 0.044 | 3.13 ± 0.04
38 | LTGSPNNPLVQKKNFLF [ARP7] | 2.9 ± 0.092 | 2.89 ± 0.1 | 2.27 ± 0.16 | 3.18 ± 0.066
39 | NNTNTDNVSGLTRNAPL [SNF2] | 3.06 ± 0.069 | 3.35 ± 0.049 | 3.05 ± 0.039 | 3.16 ± 0.037
40 | MMTRRVVMAMYNPKMID [RET1] | 3.46 ± 0.15 | 3.37 ± 0.19 | 2.62 ± 0.29 | 3.05 ± 0.094
41 | MSQYQSTMKENKDLSEL [YIL149C/MLP2] | 3 ± 0.16 | 3.12 ± 0.11 | – | 2.76 ± 0.092
42 | ARIVRVRSREDRKNRAP [RPS26A] | 3.55 ± 0.23 | – | 3.27 ± 0.26 | 2.87 ± 0.099
43 | KFMELERKTLERQQENL [SWI3] | 2.76 ± 0.17 | 3.23 ± 0.1 | 3.06 ± 0.09 | 3.12 ± 0.071
44 | VSAAEDESLIRELYKYV [PRP28] | 3.27 ± 0.11 | 3.27 ± 0.13 | 2.95 ± 0.084 | 2.94 ± 0.098
45 | VTQNVLGLEYIIRLLPI [SRB8] | 1.55 ± 0.12 | 1.68 ± 0.14 | 1.39 ± 0.25 | 1.63 ± 0.21
46 | KSQEQREHSLQLFRTNK [PRP28] | 3 ± 0.24 | 2.51 ± 0.11 | 2.88 ± 0.12 | 2.9 ± 0.076
47 | TNFSPTPANNGENAAEK [SNF2] | 2.42 ± 0.067 | 2.77 ± 0.072 | 2.21 ± 0.074 | 2.81 ± 0.05
48 | THPKDTFYITREKYNMK [ARP9] | 2.98 ± 0.12 | 3.09 ± 0.083 | 3.07 ± 0.06 | 3.31 ± 0.064
49 | FSKKGNEPLSEIEIEGV [YAR002W/NUP60] | 2.72 ± 0.11 | 3.17 ± 0.14 | 3.04 ± 0.08 | 3.15 ± 0.1
50 | VDGMAKVPIGLILQRLK [RGR1] | 2.51 ± 0.1 | 2.67 ± 0.091 | 2.22 ± 0.15 | 2.49 ± 0.057
51 | LITKANKVSYYGNPTSK [RTT102] | 2.21 ± 0.044 | 1.89 ± 0.042 | 1.97 ± 0.089 | 2.2 ± 0.045

— the supplement of paper PMC9732359
